Where a chain is given by its changes, count along the chain named.

One data set addresses T1, CodY (B. cereus INRA C3) (Bacillus cereus INRA C3) (UniProt Q819X8).
T1 sequence: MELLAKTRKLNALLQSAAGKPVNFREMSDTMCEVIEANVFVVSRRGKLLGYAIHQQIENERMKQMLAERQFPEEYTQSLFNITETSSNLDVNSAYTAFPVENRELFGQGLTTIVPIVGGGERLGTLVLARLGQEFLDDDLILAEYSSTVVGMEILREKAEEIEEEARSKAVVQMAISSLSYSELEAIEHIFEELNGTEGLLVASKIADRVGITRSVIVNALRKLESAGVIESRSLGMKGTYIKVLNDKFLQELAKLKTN
Put plainly: EMSA.
In general, Kd refers to the equilibrium constant for the complex coming apart. For “CAAGTTTGTAATAAACGTGTTCTAAGTTTCTGCATAACAAAAGTGAAGTTATTCCGCAATAAAAGTATAAGCGATGTACAGTATAATTTTACCTTTTTTAGTCTAGTAAGGAGTTTGCTGATAAAACTAAGAGTAATATTATTAAATTTAAATTAAACAATGTTATGGCAAGATTAACTGTAAGCATTGGTTTATTGATTCTCGCGGTTCTGTAAGTTAAACCGCAATTCTAGGGAAGAATTACACATTTACTATTCATAGGGTGCTTGATTCAAATATAGTTAATAAATTTTTGTTATTTATATTTGAAAAAATAGAGTATCGAAGTGAGAGG (double strand) [Phbl-4]”, the Kd was determined as 700 nM.

On to PinhA1 INRA C3, for which the Kd came out at 250 nM.

“AAATTATCGATCGTAATCGACAAAATTTTTCTATTTACGCATTAAAAATTTAATGTTTTAATGAACAACATAACTGGTATGACCAGACAGAAAGGATAAGGTTACGCTAATAGGAATTATAGTGAAGTTGTAAGTAACATTATGTTGAAAATATTTTTCGAATAGTCTATTTATTTACAAGAGGTCAAGAATCAAGTTTGTAATAAACGTGTTCTAAGTTTCTGCATAACAAAAGTGAAGTTATTCCGCAATAAAAGTATAAGCGATGTACAGTATAATTTTACCTTTTTTAGTCTAGTAAGGAGTTTGCTGA (double strand) [Phbl-2]”: the Kd came to 250 nM.

For the substance “AATAATGATATTAGGATGTTTTGTGAAAAAATCAACAATATAACATATATTACTAAATATATCTACATTTTATGCAATTATACATAACTAAATAAAGGTAAAAAAGTATAAAAAGACCTATTATATTATTCTATAAGTATTTTTTCTAAAATAAAATTTCTCGGTTGAGCTAAAATAGTTATTTTTAACCGTATACACATTAATTTGTAATCATTACAATTACAGAAATGAAATTTACGGATAACTATATTTGTATAATTTTTTTCGGTTCATATTTTTATTTAACAGTAAATTATCGATCGTAATC (double strand) [Phbl-1]”, the Kd turned out to be 700 nM.

In the case of “ATCCGAATTCTGTATATGCTATGCATAATTGCATACGGGGTTAAAAATTATATCAATATAATTTTACCGGTTGTTTGCAAGTAGTGTTTTCTGTTGTGATATGTAGATATTTCAATCGATAAAGTGAATCGGATTATATTTTGAAATAAGGACATGAAAGCTTGAAAATAAAGGGAATGAAAATACTTCTTTACGTTATATAAACAGCTGTGTTTAAATGACCTTACAGTACAAAACTTATATGAAAACAAAACGAAATTTCATATTTACGTATGTTGTTTGGTTTAAAATGAATAATATTTTTATGTAATATATTCACTGTGTGAATGTGGGAATTTCGATGAAATAGAAAATTTATACAATATTATTCATACTAAACACATATGAAAAGTTTTATAACAATAAGTAAGTACTGTAGCAATAACAGTTGGGAGAGATGGTTCATACATAGATCACGGTGAGAACGTTCTCTATTTTAACCATCTCAAATTATGGGCAAGAAAATAGAATAATAAAATGCGATAGTAATAGTTGCTAATACATAGGAGGAGTTAAAGTGGATCCGACT (double strand) [Pnhe INRA C3]”, the Kd was determined as 125 nM.

On to “TCTAGTAAGGAGTTTGCTGATAAAACTAAGAGTAATATTATTAAATTTAAATTAAACAATGTTATGGCAAGATTAACTGTAAGCATTGGTTTATTGATTCTCGCGGTTCTGTAAGTTAAACCGCAATTCTAGGGAAGAATTACACATTTACTATTCATAGGGTGCTTGATTCAAATATAGTTAATAAATTTTTGTTATTTATATTTGAAAAAATAGAGTATCGAAGTGAGAGGTAAGTAAAATCCTTACATTCTATTAGAAGTAAAAAATAACGATATTATCCTATCTGAAAGATTTCTCCTTCTTAATCAGTTTACAAAGAGAGAGGTCATACAAGTTATATGAATTAAGTTATAAAAACAATGGTAAAGGAGTGTACGGAAT (double strand) [Phbl-3]”, for which the Kd came out at 700 nM.

For PcytK-2, the Kd is greater than 1000 nM.

The next data set deals with T2, CodY (B. cytotoxicus CVUAS 2833) (Bacillus cytotoxicus CVUAS 2833) (UniProt A7GRF8).
T2 sequence: T1 sequence with S78N, I82V, A94E, R103K, E104D, Q133R, S147A, Q251H
The experiment in a line: EMSA. Background: In EMSA bound probe runs differently from free probe, usually more slowly.
Turning to PcytK-1, the Kd was greater than 1000 nM.

The values above are taken from paper PMC4877379.
